This passage reports Kd results from the Immune Epitope Database (IEDB).

Experiment [1] deals with HLA-C*12:03. The experiment can be described thus: IEDB peptide-MHC binding, purified MHC/direct/fluorescence; filed as Kd, often an IC50 or EC50 that approximates it; ≥ and ≤ were set here for values at or beyond the usual limits of such assays.
In experiment [2] the target is HLA-C*08:02. Described as above.
Experiment [3] deals with HLA-C*03:03. The experiment is described as above. The conditions noted are these: source organism: Rickettsia rickettsii str. 'Sheila Smith'.
Experiment [4] has as its target HLA-B*40:01. Described as above.
The target of experiment [5] is HLA-A*31:01. The description is as above.
For experiment [6], the target named is HLA-B*27:05. Described as above. Particulars: source organism: Camelpox virus M-96.
The target in experiment [7] is HLA-B*15:09. The experiment is described as above. The conditions noted are these: source organism: Variola virus.
Experiment [8] concerns the target HLA-A*01:01. Described as above.
Experiment [9] concerns the target HLA-B*39:01. Described as above. The conditions noted are these: source organism: Variola virus.
Experiment [10] addresses HLA-A*26:01. The experiment is described as above. The conditions noted are these: source organism: Variola virus.
Experiment [11] deals with HLA-A*69:01. Described as above. Particulars: source organism: Camelpox virus M-96.
In experiment [12] the target is HLA-B*48:01. The description is as above.
Experiment [13] deals with HLA-B*08:01. Described as above. The conditions noted are these: source organism: Variola virus.
Experiment [14] addresses HLA-A*02:01. Described as above. The conditions noted are these: source organism: Camelpox virus M-96.
For experiment [15], the target named is HLA-B*58:01. The description is as above.
In experiment [16] the target is HLA-B*15:01. The experiment can be described thus: IEDB peptide-MHC binding, purified MHC/competitive/fluorescence; filed as Kd, often an IC50 or EC50 that approximates it; ≥ and ≤ were set here for values at or beyond the usual limits of such assays. The conditions noted are these: source organism: Vaccinia virus Copenhagen.
Experiment [17] concerns the target HLA-A*03:01. Described as above. Particulars: source organism: Vaccinia virus Copenhagen.
Experiment [18] concerns the target HLA-A*11:01. The experiment is described as above. Particulars: source organism: Vaccinia virus Copenhagen.
The target of experiment [19] is HLA-B*15:17. The experiment is described as above. The conditions noted are these: source organism: Vaccinia virus Copenhagen.
Experiment [20] deals with HLA-B*57:01. The description is as above. Particulars: source organism: Vaccinia virus Copenhagen.
In experiment [21] the target is HLA-B*39:01. The description is as above. The conditions noted are these: source organism: Mus musculus.
Experiment [22] concerns the target HLA-A*69:01. The description is as above. The conditions noted are these: source organism: Mus musculus.
Experiment [23] deals with HLA-B*27:03. The description is as above. Particulars: source organism: Mus musculus.
The target in experiment [24] is HLA-B*46:01. Described as above. The conditions noted are these: source organism: Mus musculus.
Experiment [25] concerns the target HLA-A*02:01. The description is as above. The conditions noted are these: source organism: Mus musculus.
For experiment [26], the target named is HLA-B*51:01. Described as above. Particulars: source organism: Mus musculus.
Experiment [27] deals with HLA-B*08:03. The experiment in a line: IEDB peptide-MHC binding, purified MHC/direct/fluorescence; filed as Kd, often an IC50 or EC50 that approximates it; ≥ and ≤ were set here for values at or beyond the usual limits of such assays. Particulars: source organism: Cryptosporidium parvum Iowa II.
The target in experiment [28] is HLA-B*44:02. The description is as above. The conditions noted are these: source organism: Cryptosporidium hominis.
Experiment [29] deals with HLA-A*03:01. Described as above. The conditions noted are these: source organism: Cryptosporidium hominis.
The target of experiment [30] is HLA-B*18:01. The experiment is described as above. The conditions noted are these: source organism: Cryptosporidium hominis.
In experiment [31] the target is HLA-B*07:02. The experiment is described as above. Particulars: source organism: Cryptosporidium hominis.
The target in experiment [32] is HLA-B*57:01. The description is as above. The conditions noted are these: source organism: Cryptosporidium hominis.
The target of experiment [33] is HLA-A*03:01. The experiment can be described thus: IEDB peptide-MHC binding, purified MHC/competitive/radioactivity; filed as Kd, often an IC50 or EC50 that approximates it; ≥ and ≤ were set here for values at or beyond the usual limits of such assays. Particulars: source organism: Vaccinia virus WR.
Experiment [34] concerns the target HLA-A*31:01. The description is as above. The conditions noted are these: source organism: Vaccinia virus WR.
The target in experiment [35] is HLA-A*68:01. The description is as above. Particulars: source organism: Vaccinia virus WR.
For experiment [36], the target named is HLA-A*33:01. The experiment is described as above. Particulars: source organism: Vaccinia virus WR.
In experiment [37] the target is HLA-A*11:01. The description is as above. Particulars: source organism: Vaccinia virus WR.
Where [38] appears, read: source organism: Rickettsia rickettsii str. 'Sheila Smith'.
Setting [39] is: source organism: Camelpox virus M-96.
The mark [40] stands for this setting: source organism: Cryptosporidium hominis.

Some results are limits rather than exact numbers.

FMPESSYLL: the Kd (in general, the free concentration of one partner at which half of the binding sites on the other are occupied at equilibrium, for simple one-to-one binding) was 0.707 µM in [1] (setting [38]), not below 20 µM in experiment [2] (setting [38]) and 0.443 µM in experiment [3].
Regarding MTRVTNNVY, the Kd was not below 20 µM in [4] (setting [39]); not below 20 µM in experiment [5] (setting [39]); not below 20 µM in [6]; not below 20 µM in experiment [7]; 2.59 µM in [8] (setting [39]); not below 20 µM in experiment [9]. Also, the Kd in experiment [10] was 0.237 µM; in experiment [11] it was not below 20 µM; in experiment [12] (setting [39]) it was not below 20 µM; in [13] it was not below 20 µM; in [14], not below 20 µM; in [15] (source organism: Variola virus) it was 0.635 µM. The equilibrium dissociation constant (Kd) in experiment [16] was 0.125 µM; in experiment [17] it was not below 20 µM; in experiment [18] it was not below 20 µM; in experiment [19], not above 0.001 µM; in experiment [20] it was 0.0986 µM.
Turning to YTFCGTIEY, the Kd in [1] (source organism: Mus musculus) was not above 0.001 µM; in experiment [2] (source organism: Mus musculus), not below 20 µM; in [21] it was not below 20 µM; in [22] it was not below 20 µM; in [23], not below 20 µM; in experiment [24] it was 0.0114 µM. Moreover, the Kd in experiment [25] and in experiment [26] was not below 20 µM in each case.
For the sequence FMKSRVYSI, the Kd was 0.029 µM in experiment [27]; not below 20 µM in experiment [4] (setting [40]); not below 20 µM in [28]; not below 20 µM in experiment [29]; not below 20 µM in experiment [5] (setting [40]); not below 20 µM in experiment [30]. The Kd in experiment [8] (setting [40]), in experiment [31], in experiment [12] (setting [40]), in experiment [32] and in [15] (setting [40]) was not below 20 µM in each case.
For the sequence FTDISMSLY, the Kd in experiment [2] (source organism: Variola virus) is 0.019 µM; in experiment [8] (setting [39]) it was not above 0.001 µM; in experiment [33] it was not below 32.2 µM; in experiment [34], 10.7 µM; in experiment [35] it was 0.546 µM; in [36], not below 77.7 µM. Moreover, the equilibrium dissociation constant (Kd) in experiment [37] was determined as 2.53 µM.
